The test system of one series is histones H3–H4. As to the kind of experiment: Pull-down with recombinant histones H3–H4. The class given is binding. The settings on record: GST-ARD with H3–H4 tetramers, 20 mM Tris pH 7.5, 0.5 M NaCl, 23 °C, 1 h; IVT full length TONSL with H3.1–H4 beads, 2 h.
In a further series the test system is U-2-OS cells. As to the kind of experiment: Clonogenic assay upon GFP-TONSL induction. The settings on record: siTONSL; presence and absence of CPT 50 nM 24 h; 12-15 days; +tet. The class given is cell-based.

B1: WT: human TONSL Ankyrin Repeat Domain (residues 512–692), wild type (protein)
chain: GHLGRRKGSKWNRRNDMGETLLHRACIEGQLRRVQDLVRQGHPLNPRDYCGWTPLHEACNYGHLEIVRFLLDHGAAVDDPGGQGCEGITPLHDALNCGHFEVAELLLERGASVTLRTRKGLSPLETLQQWVKLYRRDLDLETRQKARAMEMLLQAAASGQDPHSSQAFHTPSSLLFDPETS
modifications: left off: GST, end not stated, cleaved
As for B1, the “direct binding to histones H3–H4 in vitro” value in the series with histones H3–H4 was “bound directly to histones H3–H4”.

B2: TONSL WT: siRNA resistant GFP-TONSL, wild type, inducible in U-2-OS (protein)
chain: MSLERELRQLSKAKAKAQRAGQRREEAALCHQLGELLAGHGRYAEALEQHWQELQLRERADDPLGCAVAHRKIGERLAEMEDYPAALQHQHQYLELAHSLRNHTELQRAWATIGRTHLDIYDHCQSRDALLQAQAAFEKSLAIVDEELEGTLAQGELNEMRTRLYLNLGLTFESLQQTALCNDYFRKSIFLAEQNHLYEDLFRARYNLGTIHWRAGQHSQAMRCLEGARECAHTMRKRFMESECCVVIAQVLQDLGDFLAAKRALKKAYRLGSQKPVQRAAICQNLQHVLAVVRLQQQLEEAEGRDPQGAMVICEQLGDLFSKAGDFPRAAEAYQKQLRFAELLDRPGAERAIIHVSLATTLGDMKDHHGAVRHYEEELRLRSGNVLEEAKTWLNIALSREEAGDAYELLAPCFQKALSCAQQAQRPQLQRQVLQHLHTVQLRLQPQEAPETETRLRELSVAEDEDEEEEAEEAAATAESEALEAGEVELSEGEDDTDGLTPQLEEDEELQGHLGRRKGSKWNRRNDMGETLLHRACIEGQLRRVQDLVRQGHPLNPRDYCGWTPLHEACNYGHLEIVRFLLDHGAAVDDPGGQGCEGITPLHDALNCGHFEVAELLLERGASVTLRTRKGLSPLETLQQWVKLYRRDLDLETRQKARAMEMLLQAAASGQDPHSSQAFHTPSSLLFDPETSPPLSPCPEPPSNSTRLPEASQAHVRVSPGQAAPAMARPRRSRHGPASSSSSSEGEDSAGPARPSQKRPRCSATAQRVAAWTPGPASNREAATASTSRAAYQAAIRGVGSAQSRLGPGPPRGHSKALAPQAALIPEEECLAGDWLELDMPLTRSRRPRPRGTGDNRRPSSTSGSDSEESRPRARAKQVRLTCMQSCSAPVNAGPSSLASEPPGSPSTPRVSEPSGDSSAAGQPLGPAPPPPIRVRVQVQDHLFLIPVPHSSDTHSVAWLAEQAAQRYYQTCGLLPRLTLRKEGALLAPQDLIPDVLQSNDEVLAEVTSWDLPPLTDRYRRACQSLGQGEHQQVLQAVELQGLGLSFSACSLALDQAQLTPLLRALKLHTALRELRLAGNRLGDKCVAELVAALGTMPSLALLDLSSNHLGPEGLRQLAMGLPGQATLQSLEELDLSMNPLGDGCGQSLASLLHACPLLSTLRLQACGFGPSFFLSHQTALGSAFQDAEHLKTLSLSYNALGAPALARTLQSLPAGTLLHLELSSVAAGKGDSDLMEPVFRYLAKEGCALAHLTLSANHLGDKAVRDLCRCLSLCPSLISLDLSANPEISCASLEELLSTLQKRPQGLSFLGLSGCAVQGPLGLGLWDKIAAQLRELQLCSRRLCAEDRDALRQLQPSRPGPGECTLDHGSKLFFRRL
modifications: left off: GFP, end not stated, kept
Take B2: in the series with U-2-OS cells, the “viability of TONSL depleted cells (colony formation)” value is given as “partially rescued viability”.

B3: Full length TONSL: in vitro-translated full length TONSL (protein)
chain: B2 chain
modifications: 35S-methionine
B3: the “direct binding to histones H3–H4 in vitro” value in the series with histones H3–H4 was “bound directly to histones H3–H4”.

The record behind these values is PMC4939875 (Nature, 2016).
